For one substance, stoichiometry N results are on record in PMC13410764.

The test deals with Tr1 protein of Anaplasma phagocytophilum (recombinant, tagless) (Anaplasma phagocytophilum). In words: SEC; gel filtration on a HiPrep Sephadex 75 16/600 column with Buffer B; apparent molecular weights from a standard curve of elution volumes.

In general, stoichiometry N refers to a count of units in the complex or per binding partner. “Tr1 protein of Anaplasma phagocytophilum (recombinant, tagless) (natural protein)”: the stoichiometry N came to 4.
